Measurements published in article doi:10.1101/2024.05.03.592409 (bioRxiv, 2024).

Legend:
Test in all cases: PIE-FCCS
[1] = target: GCN4 (membrane protein construct, live-cell dimer control)
[2] = target: HER3 (human, UniProt P21860 20-1342)
[3] = target: EGFR (human, UniProt P00533 25-1210)
[4] = target: HER2 (human, UniProt P04626 23-1255)

Sequence of HER3 (P21860 20-1342): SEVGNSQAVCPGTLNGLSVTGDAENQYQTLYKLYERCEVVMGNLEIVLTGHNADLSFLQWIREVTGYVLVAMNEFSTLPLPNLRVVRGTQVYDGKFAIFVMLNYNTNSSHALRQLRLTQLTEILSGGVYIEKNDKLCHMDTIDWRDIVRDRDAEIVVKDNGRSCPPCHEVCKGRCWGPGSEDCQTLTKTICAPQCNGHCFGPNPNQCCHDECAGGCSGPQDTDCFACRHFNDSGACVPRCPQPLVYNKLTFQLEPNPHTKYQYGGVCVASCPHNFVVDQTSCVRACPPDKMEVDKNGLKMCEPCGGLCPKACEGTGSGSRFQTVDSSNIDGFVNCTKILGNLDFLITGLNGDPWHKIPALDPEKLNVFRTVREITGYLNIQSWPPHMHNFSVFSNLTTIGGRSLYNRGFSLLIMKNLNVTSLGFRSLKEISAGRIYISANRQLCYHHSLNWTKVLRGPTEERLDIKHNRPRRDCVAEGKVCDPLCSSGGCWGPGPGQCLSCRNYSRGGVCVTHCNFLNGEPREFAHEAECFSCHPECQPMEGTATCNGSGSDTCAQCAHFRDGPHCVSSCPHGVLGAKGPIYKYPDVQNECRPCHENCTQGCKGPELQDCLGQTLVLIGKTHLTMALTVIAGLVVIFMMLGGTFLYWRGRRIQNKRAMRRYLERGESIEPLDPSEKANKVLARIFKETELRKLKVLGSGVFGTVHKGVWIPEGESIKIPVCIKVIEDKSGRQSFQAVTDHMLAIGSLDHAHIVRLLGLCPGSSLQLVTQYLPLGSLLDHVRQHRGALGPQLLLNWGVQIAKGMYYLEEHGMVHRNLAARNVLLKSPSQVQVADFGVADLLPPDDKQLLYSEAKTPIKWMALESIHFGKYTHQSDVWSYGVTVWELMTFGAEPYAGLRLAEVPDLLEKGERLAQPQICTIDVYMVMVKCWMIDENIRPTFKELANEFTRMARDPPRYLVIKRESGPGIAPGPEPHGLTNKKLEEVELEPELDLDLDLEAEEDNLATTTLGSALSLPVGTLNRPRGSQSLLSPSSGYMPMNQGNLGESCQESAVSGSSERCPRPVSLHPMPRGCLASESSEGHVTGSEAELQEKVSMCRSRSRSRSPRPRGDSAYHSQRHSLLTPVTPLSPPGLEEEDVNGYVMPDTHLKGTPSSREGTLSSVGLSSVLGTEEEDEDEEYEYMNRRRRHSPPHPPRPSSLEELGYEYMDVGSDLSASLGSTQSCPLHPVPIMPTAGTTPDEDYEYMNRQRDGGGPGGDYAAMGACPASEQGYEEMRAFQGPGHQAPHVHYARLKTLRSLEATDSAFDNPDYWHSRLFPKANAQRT

Molecule | median fc (fraction of cross-correlation) [1] | stoichiometry N [1] | median fc (fraction of cross-correlation) [2] | median fc (fraction of cross-correlation) [3] | median fc (fraction of cross-correlation) [4]
GCN4 (membrane protein construct, live-cell dimer control) | 0.15 | 2 |  |  | 
HER4 (receptor) QSVCAGTENKLSSLSDLEQQYRALRKYYENCEVVMGNLEITSIEHNRDLSFLRSVREVTGYVLVALNQFRYLPLENLRIIRGTKLYEDRYALAIFLNYRKDGNFGLQELGLKNLTEILNGGVYVDQNKFLCYADTIHWQDIVRNPWPSNLTLVSTNGSSGCGRCHKSCTGRCWGPTENHCQTLTRTVCAEQCDGRCYGPYVSDCCHRECAGGCSGPKDTDCFACMNFNDSGACVTQCPQTFVYNPTTFQLEHNFNAKYTYGAFCVKKCPHNFVVDSSSCVRACPSSKMEVEENGIKMCKPCTDICPKACDGIGTGSLMSAQTVDSSNIDKFINCTKINGNLIFLVTGIHGDPYNAIEAIDPEKLNVFRTVREITGFLNIQSWPPNMTDFSVFSNLVTIGGRVLYSGLSLLILKQQGITSLQFQSLKEISAGNIYITDNSNLCYYHTINWTTLFSTINQRIVIRDNRKAENCTAEGMVCNHLCSSDGCWGPGPDQCLSCRRFSRGRICIESCNLYDGEFREFENGSICVECDPQCEKMEDGLLTCHGPGPDNCTKCSHFKDGPNCVEKCPDGLQGANSFIFKYADPDRECHPCHPNCTQGCNGPTSHDCIYYPWTGHSTLPQHARTPLIAAGVIGGLFILVIVGLTFAVYVRRKSIKKKRALRRFLETELVEPLTPSGTAPNQAQLRILKETELKRVKVLGSGAFGTVYKGIWVPEGETVKIPVAIKILNETTGPKANVEFMDEALIMASMDHPHLVRLLGVCLSPTIQLVTQLMPHGCLLEYVHEHKDNIGSQLLLNWCVQIAKGMMYLEERRLVHRDLAARNVLVKSPNHVKITDFGLARLLEGDEKEYNADGGKMPIKWMALECIHYRKFTHQSDVWSYGVTIWELMTFGGKPYDGIPTREIPDLLEKGERLPQPPICTIDVYMVMVKCWMIDADSRPKFKELAAEFSRMARDPQRYLVIQGDDRMKLPSPNDSKFFQNLLDEEDLEDMMDAEEYLVPQAFNIPPPIYTSRARIDSNRSEIGHSPPPAYTPMSGNQFVYRDGGFAAEQGVSVPYRAPTSTIPEAPVAQGATAEIFDDSCCNGTLRKPVAPHVQEDSSTQRYSADPTVFAPERSPRGELDEEGYMTPMRDKPKQEYLNPVEENPFVSRRKNGDLQALDNPEYHNASNGPPKAEDEYVNEPLYLNTFANTLGKAEYLKNNILSMPEKAKKAFDNPDYWNHSLPPRSTLQHPDYLQEYSTKYFYKQNGRIRPIVAENPEYLSEFSLKPGTVLPPPPYRHRNTVV |  |  | 0.11 | 0.17 | 0.17
